Numbering of substitutions follows the chain as printed.
B1: F1.78.24 human-murine chimeric antibody (antibody, human IgG1, kappa, V domains shown)
VH: QVQLQQSGAELVKPGASVKMSCKASGYTFTTYPIEWMKQNHGKSLEWIGNFHPYNDDTNYNVKFKGKATLTVEKSSSTVYLELSRLTSDDSALYYCARRREYYGSFDVWGTGTTVTVSS
VL: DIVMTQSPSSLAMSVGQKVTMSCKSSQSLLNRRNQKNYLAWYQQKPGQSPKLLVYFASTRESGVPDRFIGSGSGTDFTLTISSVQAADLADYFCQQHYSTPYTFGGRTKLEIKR
B2: F1.42.8 human-murine chimeric antibody (antibody, human IgG1, kappa, V domains shown)
VH: HVQLQQPGAELVKPGASVKLSCKASGYTFTSYWMHWVRQRPGQGLEWIEMIHPNSGSTNYNEKFKSKATLTVDKSSSTAYMQLSSLTSEDSAVYYCARGNYNSSLYAMDYWGQGTSVTVSS
VL: DIQMTQTTSSLSASLGDRVTISCSASQGISNYLNWYQQKPDGTVKLLIYYASNLHSGVPSRFSGSGSGTAYSLTISNLEPEDIATYYCQQYSILPYTFGGGTKLEIKR
B3: F1.118.4 human-murine chimeric antibody (antibody, human IgG1, kappa, V domains shown)
VH: QVQLQQSGAELAKPGASVKLSCKASGYSFTSYWIHWVKQRPGQGLEWIGYINPSSGYTKYNQKFKDKATLTADKSSSTAYMQLSSLTYEDSAVYYCARFGSSSFYFDYWGQGTTLTVSS
VL: DIVLTQSPASLAVSLGQRATISCRASQSVSSSSYSYMHWYQQKPGQPPKLLIKYASNLDSGVPARFSGSGSGTDFTLNIHPVEEEDTATYYCQHSWEIPAFGGGTKLEIKR
B4: F1.2.14 human-murine chimeric antibody (antibody, human IgG1, kappa, V domains shown)
VH: RVQLQQSGAELVKPGASVRMSCKASGYTFTAYSIEWMKQNLGKSLEWIGNFRPYNDDTKYNENFKGRATLTVEKSSATVYLELSRLTSDDSAVYYCARSGPTDYFDYWGQGTTLIVSS
VL: DIQMTQSPASLSASVGETVTITCRASDNIYSYLAWYQQKQGQSPQLLVYNAKTLAEGVPSRFSGSGSVTQFSLKIISLQPEDFGTYYCQHHFGTPRTFGGGTKLEIKR
B5: F1.110.24 human-murine chimeric antibody (antibody, human IgG1, kappa, V domains shown)
VH: EVKLVESGGGLVQPGGSLKLSCAASGFTFSDFYMYWVRQTPEKRLEWVAFISNGGGSTYYPDTVKGRFTISRDNVKNTLYLQMSRLKSEDTAMYYCARPDTSWFAYWGQGSLVTVSA
VL: DIQMTQTTSSLSASLGDRVTISCRASQDIDNYLNWYQQKPDGTVKVLISYTSRLHSGVPSRFSGSGSGTDYSLTISNLEQEDIATYFCQQGNTLPWTFGGGTKLEIKR
B6: F1.92.17 human-murine chimeric antibody (antibody, human IgG1, kappa, V domains shown)
VH: EVQLQQSGPELVKPGASVKMSCKASGYTFTDYNMHWVRQSHGKSLEWIGYINPNNGDTIYNQNFKGKATLTVNKSSSTAYMELRSLTSEDSAVYYCSRTITYYYSMDYWGPGTSVTVSS
VL: QIVLTQSPALMSASPGEKVTMTCSASSSVSYMYWYQQKPRSSPKPWIYLTSNLASGVPARFSGSGSGTSYSLTISSMEAEDAATYYCQQWSSNPLTFGAGTKLELKR
B7: F1.83.6 human-murine chimeric antibody (antibody, human IgG1, kappa, V domains shown)
VH: QVQLQQSGPELVKPGASVKISCKASGYAFSSSWMNWVKQRPGKGLEWIGRIYPGDGDTNYNGRFKGKATLTVDKSSSTAYMQLSSLTSEDSAVYFCARGGVFTMALDHWGQGTTLTVSS
VL: DIQMTQSPSSLSASLGGKVTITCKASQDINKYIAWYQHKPGKGPRLLIHYTSTLQPGIPSRFSGSGSGRDYSFSISNLEPEDIATYYCLQYDNLFTFGGGTKLEIKR
B8: F1.21.8 human-murine chimeric antibody (antibody, human IgG1, kappa, V domains shown)
VH: EVQLQQSGPELVKPGASVKISCKTSGFLFTGHYMHWVKSSHGNILDWIGYIYPYNAISFYNQKFKGKATLTVDKSSNTAYMELRSLTSEDSAVYYCARGDYGNYVTAYWGQGTLVTVSA
VL: DVLMTQTPLSLPVSLGDQASISCRSSQSIVHSSGNTYLEWYLQKPGQSPKLLIYKVSNRFSGVPDRFSGSGSGTDFTLKISRVEAEDLGVYYCFQGSHLPWTFGGGTKLDIKR
B9: F1.111.11 human-murine chimeric antibody (antibody, human IgG1, kappa, V domains shown)
VH: EVQLQQSGPELVKPGASVKISCKASGYTFTDYYMNWVKQSHGKSLEWIGDIYPNNGDTTYNQRFKGKATLTVDKSSSTAYMELRSLASEDSAVYYCACPYNNPFGYWGQGTLVTVSA
VL: B8 VL with L3V, I29L, S33N, E39H, Y92F, F94S, G96S, S97T, L99V, D110E
B10: F1.41.17 human-murine chimeric antibody (antibody, human IgG1, kappa, V domains shown)
VH: EVQLVESGGDSVKPGGSLKLSCAASGFTFSSYGMSWVRQTPDKRLEWVATINSGGSYTYYQDSVKGRFTISRDNAKNTLYLQMSSLKSEDTAIYYCVRHHYGSSYDYFDYWGQGTTLTVSS
VL: DIVMTQAAPSVPVMPGESVSISCRSSKSLLHSNGNTHLYWFLQRPGQSPQLLIYRMSNLASGVPDRFSGSGSGTAFTLRISRVEAEDVGVYYCMQHLEYPLTFGAGTKLELKR
B11: hAb006LH1L1a (antibody, human IgG1, V domains shown)
VH: EVQLVQSGAEVKKPGSSVKVSCKASGYTFSDYEIHWVRQAPGQGLEWMGAIDPKTGNTAYNQKFMGRVTITADKSTSTAYMELSSLRSEDTAVYYCTRYFSFAYWGQGTLVTVSS
VL: DIVMTQTPLSLPVTPGEPASISCRSSQTFVHSDGNTYLQWYLQKPGQSPQLLIYKVSNRFSGVPDRFSGSGSGTDFTLKISRVEAEDVGVYYCFQGSHVPYTFGQGTKLEIK
notes: Humanized F3.38.7; VH H1 + VL L1a; expressed as human IgG1
B12: hAb006LH3L1a (antibody, human IgG1, V domains shown)
VH: B11 VH with S30T, I70L
VL: B11 VL
notes: Humanized F3.38.7; VH H3 + VL L1a; expressed as human IgG1
B13: hAb007LH1L1a (antibody, human IgG1, V domains shown)
VH: B11 VH with I34M, A50T, K54E, M65K, Y99P, F100Y, F102L, A103T
VL: B11 VL with T28S, N35D
notes: Humanized F3.81.19; VH H1 + VL L1a; expressed as human IgG1
B14: hAb007LH2L1a (antibody, human IgG1, V domains shown)
VH: B11 VH with S30T, I34M, A50T, K54E, M65K, Y99P, F100Y, F102L, A103T
VL: B11 VL with T28S, N35D
notes: Humanized F3.81.19; VH H2 + VL L1a; expressed as human IgG1
B15: hAb006LH2L1a (antibody, human IgG1, V domains shown)
VH: B11 VH with S30T
VL: B11 VL
notes: Humanized F3.38.7; VH H2 + VL L1a; expressed as human IgG1
B16: hAb007LH3L1a (antibody, human IgG1, V domains shown)
VH: B11 VH with S30T, I34M, A50T, K54E, M65K, I70L, Y99P, F100Y, F102L, A103T
VL: B11 VL with T28S, N35D
notes: Humanized F3.81.19; VH H3 + VL L1a; expressed as human IgG1
B17: F2.152.3 (antibody, human IgG1, kappa, V domains shown)
VH: EVQLQQSGPELVKPGASVKMSCKASGYTFTDYYMTWVKQSHGKSLEWIGRVNPRNGDTTYNQKFEGRATLTLDKSLSTAFMQLNSLTSEDSAVYYCINSKGHFDYWGQGTTLTVSS
VL: B8 VL with S33N, Y41F, L51S, L99V, W101P, G105A, D110E, I111L
notes: Human-murine chimeric antibody

target: T1, murine GPC3-his protein (Sino Biological, Cat. No. 50989-M08B) (murine, UniProt Q8CFZ4 25-558); assay: ELISA, coated murine GPC3-His;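 also: antigen coated on plates at 1 µg/mL, test antibody bound for 2 h at 37 °C, detected with HRP-conjugated secondary antibody and TMB substrate after acid stop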
T1 construct: Bought protein; also called murine GPC3 protein
T1 sequence (Q8CFZ4 25-558 limits assumed): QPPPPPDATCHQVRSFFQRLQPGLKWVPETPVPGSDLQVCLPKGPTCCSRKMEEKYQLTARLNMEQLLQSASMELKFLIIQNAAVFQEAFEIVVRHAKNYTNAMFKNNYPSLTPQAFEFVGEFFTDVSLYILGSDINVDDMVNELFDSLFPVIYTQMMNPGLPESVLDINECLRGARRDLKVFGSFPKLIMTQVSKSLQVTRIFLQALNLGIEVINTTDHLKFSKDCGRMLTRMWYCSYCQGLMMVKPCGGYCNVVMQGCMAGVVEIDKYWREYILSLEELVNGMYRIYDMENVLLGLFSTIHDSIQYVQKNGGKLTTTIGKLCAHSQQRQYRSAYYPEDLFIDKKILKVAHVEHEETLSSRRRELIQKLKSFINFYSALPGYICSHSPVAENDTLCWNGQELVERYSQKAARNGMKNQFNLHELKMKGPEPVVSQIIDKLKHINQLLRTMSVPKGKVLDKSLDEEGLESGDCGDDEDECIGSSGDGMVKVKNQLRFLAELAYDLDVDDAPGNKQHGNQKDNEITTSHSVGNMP

| OD450 at 0.0001 nM antibody | OD450 at 0.001 nM antibody | OD450 at 0.01 nM antibody | OD450 at 0.1 nM antibody | OD450 at 1 nM antibody | OD450 at 10 nM antibody | OD450 at 100 nM antibody | Binder |
| --- | --- | --- | --- | --- | --- | --- | --- |
| 0.05 OD450 nm | 0.06 OD450 nm | 0.1 OD450 nm | 0.24 OD450 nm | 0.17 OD450 nm | 0.34 OD450 nm | 0.25 OD450 nm | B1 |
| 0.05 OD450 nm | 0.09 OD450 nm | 0.37 OD450 nm | 1.7 OD450 nm | 2.51 OD450 nm | 2.6 OD450 nm | 2.75 OD450 nm | B2 |
| 0.05 OD450 nm | 0.05 OD450 nm | 0.05 OD450 nm | 0.05 OD450 nm | 0.05 OD450 nm | 0.06 OD450 nm | 0.07 OD450 nm | B3 |
| 0.05 OD450 nm | 0.05 OD450 nm | 0.06 OD450 nm | 0.14 OD450 nm | 0.46 OD450 nm | 1.2 OD450 nm | 1.24 OD450 nm | B4 |
| 0.05 OD450 nm | 0.05 OD450 nm | 0.05 OD450 nm | 0.12 OD450 nm | 0.32 OD450 nm | 0.53 OD450 nm | 0.3 OD450 nm | B5 |
| 0.05 OD450 nm | 0.05 OD450 nm | 0.05 OD450 nm | 0.06 OD450 nm | 0.11 OD450 nm | 0.22 OD450 nm | 0.13 OD450 nm | B6 |
| 0.05 OD450 nm | 0.05 OD450 nm | 0.06 OD450 nm | 0.12 OD450 nm | 0.14 OD450 nm | 0.24 OD450 nm | 0.16 OD450 nm | B7 |
| 0.05 OD450 nm | 0.07 OD450 nm | 0.17 OD450 nm | 0.76 OD450 nm | 1.12 OD450 nm | 1.41 OD450 nm | 1.84 OD450 nm | B8 |
| 0.06 OD450 nm | 0.13 OD450 nm | 0.62 OD450 nm | 2.04 OD450 nm | 2.67 OD450 nm | 2.6 OD450 nm | 3.01 OD450 nm | B9 |
| 0.06 OD450 nm | 0.05 OD450 nm | 0.05 OD450 nm | 0.06 OD450 nm | 0.07 OD450 nm | 0.08 OD450 nm | 0.11 OD450 nm | B10 |

target: biotinylated labeled human GPC3 protein (produced in-house) (human, UniProt P51654 25-559, limits assumed, biotinylated (Dojindo, Cat. No. LK03); sites not stated); assay: ELISA, biotinylated human GPC3 protein

| OD450 at 0.0008 nM | OD450 at 0.004 nM | OD450 at 0.02 nM | OD450 at 0.11 nM | OD450 at 0.53 nM | OD450 at 2.67 nM | OD450 at 13.33 nM | OD450 at 66.66 nM | Binder |
| --- | --- | --- | --- | --- | --- | --- | --- | --- |
| 0.076 OD450 | 0.078 OD450 | 0.101 OD450 | 0.268 OD450 | 0.904 OD450 | 1.49 OD450 | 1.92 OD450 | 2.1 OD450 | B11 |
| 0.076 OD450 | 0.072 OD450 | 0.087 OD450 | 0.207 OD450 | 0.909 OD450 | 1.48 OD450 | 1.83 OD450 | 2.07 OD450 | B12 |
| 0.087 OD450 | 0.112 OD450 | 0.218 OD450 | 0.634 OD450 | 1.57 OD450 | 2.1 OD450 | 2.2 OD450 | 2.22 OD450 | B13 |
| 0.092 OD450 | 0.099 OD450 | 0.173 OD450 | 0.491 OD450 | 1.29 OD450 | 1.95 OD450 | 2.12 OD450 | 2.09 OD450 | B14 |
| 0.073 OD450 | 0.072 OD450 | 0.076 OD450 | 0.139 OD450 | 0.584 OD450 | 1.37 OD450 | 1.74 OD450 | 1.92 OD450 | B15 |
| 0.083 OD450 | 0.088 OD450 | 0.14 OD450 | 0.353 OD450 | 1.04 OD450 | 1.78 OD450 | 2.04 OD450 | 2.03 OD450 | B16 |

target: T2, monkey GPC3-His protein (monkey); assay: ELISA, monkey GPC3-His coated;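 also: Plate-coated antigen at 1 µg/mL, antibody binding 2 h at 37 °C, detected with HRP-labeled secondary antibody and TMB, absorbance at 450 nm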
T2 construct: Bought recombinant protein; also called monkey GPC3 protein

| OD450 at 0.0001 nM | OD450 at 0.001 nM | OD450 at 0.01 nM | OD450 at 0.1 nM | OD450 at 1 nM | OD450 at 10 nM | OD450 at 100 nM | Binder |
| --- | --- | --- | --- | --- | --- | --- | --- |
| 0.24 OD450 | 0.31 OD450 | 0.69 OD450 | 1.92 OD450 | 2.52 OD450 | 2.31 OD450 | 2.41 OD450 | B17 |

Source: patent US20260116991A1 (HAINAN SIMCERE ZAIMING PHARMACEUTICAL, published 2026)
